From paper PMC7614968

Target: SteD (untagged, HIS tag cleaved) (Salmonella enterica serovar Typhimurium (14028s))
Test: SEC-MALS; co-purified untagged SteD-SrcA complex at 8 mg/ml on analytical Superdex200 in the dialysis buffer (20 mM phosphate pH 6.8, 150 mM NaCl, 5 % glycerol, 1 mM DTT), 0.4 ml/min

“SrcA (untagged, recombinant) (natural protein)” showed a stoichiometry N (SrcA molecules per SteD molecule) of 2.
